Reference: paper PMC9482650, “Quantitative fragmentomics allow affinity mapping of interactomes” (Nature Communications, 2022)

T1: FRMPD1, Q5SYB0
T1 sequence (Q5SYB0 52-145, limits assumed, looked up): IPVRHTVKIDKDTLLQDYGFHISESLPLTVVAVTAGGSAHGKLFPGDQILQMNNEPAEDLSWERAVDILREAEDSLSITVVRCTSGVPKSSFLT

T2: DVL3, Q92997
T2 sequence (Q92997 244-331, limits assumed, looked up): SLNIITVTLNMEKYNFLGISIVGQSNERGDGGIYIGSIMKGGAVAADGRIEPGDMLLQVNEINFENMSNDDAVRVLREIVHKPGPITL

T3: HTRA3, P83110
T3 sequence (P83110 354-453, limits assumed, looked up): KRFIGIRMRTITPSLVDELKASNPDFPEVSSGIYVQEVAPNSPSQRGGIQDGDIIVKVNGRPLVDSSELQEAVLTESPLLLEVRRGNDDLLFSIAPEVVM

T4: DFNB31_2, Q9P202
T4 sequence (Q9P202 274-371, limits assumed, looked up): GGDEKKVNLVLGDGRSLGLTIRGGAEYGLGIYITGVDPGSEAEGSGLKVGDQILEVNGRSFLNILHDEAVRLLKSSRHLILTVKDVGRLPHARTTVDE

T5: APBA1_2, Q02410
T5 sequence (Q02410 742-832, limits assumed, looked up): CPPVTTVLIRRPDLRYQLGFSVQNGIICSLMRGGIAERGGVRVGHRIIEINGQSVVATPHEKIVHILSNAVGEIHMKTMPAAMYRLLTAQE

T6: APBA1_1, Q02410
T6 sequence (Q02410 651-752, limits assumed, looked up): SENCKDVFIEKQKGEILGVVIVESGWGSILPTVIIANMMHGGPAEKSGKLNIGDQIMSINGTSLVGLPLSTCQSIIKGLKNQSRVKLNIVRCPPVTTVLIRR

T7: LNX2_2, Q8N448
T7 sequence (Q8N448 334-432, limits assumed, looked up): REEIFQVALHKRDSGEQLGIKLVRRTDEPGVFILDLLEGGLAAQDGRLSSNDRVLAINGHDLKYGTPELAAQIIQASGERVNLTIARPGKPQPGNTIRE

T8: DLG3_3, Q92796
T8 sequence (Q92796 374-475, limits assumed, looked up): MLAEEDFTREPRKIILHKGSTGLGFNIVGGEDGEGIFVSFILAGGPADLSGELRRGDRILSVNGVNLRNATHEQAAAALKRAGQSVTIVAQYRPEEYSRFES

T9: GRIP1_5, Q9Y3R0
T9 sequence (Q9Y3R0 568-668, limits assumed, looked up): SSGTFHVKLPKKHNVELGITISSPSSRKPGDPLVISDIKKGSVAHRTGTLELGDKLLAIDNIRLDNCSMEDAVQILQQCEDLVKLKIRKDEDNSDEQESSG


How the values were obtained:
Assay in all cases: holdup assay
Parameters in all cases: key: below the threshold = too weak to quantify, mostly under pKd 3.1 to 4
Conditions in all cases: plain residues with an end cap or a label only (N-terminal biotin on a linker: ado-ado)
FRMPD1, Q5SYB0 = target: T1, FRMPD1, Q5SYB0
NOS1, P29475 = target: NOS1, P29475
PDLIM1, O00151 = target: PDLIM1, O00151
Inadl_10, Q8NI35 = target: Inadl_10, Q8NI35
DVL3, Q92997 = target: T2, DVL3, Q92997
DLG1_2, Q12959 = target: DLG1_2, Q12959
HTRA3, P83110 = target: T3, HTRA3, P83110
DFNB31_2, Q9P202 = target: T4, DFNB31_2, Q9P202
SCRIB_1, Q14160 = target: SCRIB_1, Q14160
TJP1_3, Q07157 = target: TJP1_3, Q07157
APBA1_2, Q02410 = target: T5, APBA1_2, Q02410
Inadl_9, Q8NI35 = target: Inadl_9, Q8NI35
NHERF4_1, Q86UT5-2 = target: NHERF4_1, Q86UT5-2
Inadl_5, Q8NI35 = target: Inadl_5, Q8NI35
Inadl_4, Q8NI35 = target: Inadl_4, Q8NI35
TJP2_1, Q9UDY2 = target: TJP2_1, Q9UDY2
APBA1_1, Q02410 = target: T6, APBA1_1, Q02410
DLG1_3, Q12959 = target: DLG1_3, Q12959
FRMPD3, Q5JV73 = target: FRMPD3, Q5JV73
PDZRN4_1, Q6ZMN7 = target: PDZRN4_1, Q6ZMN7
LNX2_2, Q8N448 = target: T7, LNX2_2, Q8N448
DLG3_3, Q92796 = target: T8, DLG3_3, Q92796
GRIP2_3, Q9C0E4 = target: GRIP2_3, Q9C0E4
GOPC, Q9HD26 = target: GOPC, Q9HD26
PTPN3, P26045 = target: PTPN3, P26045
SCRIB_3, Q14160 = target: SCRIB_3, Q14160
Inadl_8, Q8NI35 = target: Inadl_8, Q8NI35
AHNAK1, Q09666 = target: AHNAK1, Q09666
GRIP1_5, Q9Y3R0 = target: T9, GRIP1_5, Q9Y3R0

TJP1_3, Q07157, sequence (Q07157 416-512): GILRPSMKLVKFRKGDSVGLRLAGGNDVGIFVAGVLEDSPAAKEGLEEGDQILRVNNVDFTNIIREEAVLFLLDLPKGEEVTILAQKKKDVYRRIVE
NHERF4_1, Q86UT5-2, sequence (Q86UT5 other isoform, or with tags, fused parts or gaps): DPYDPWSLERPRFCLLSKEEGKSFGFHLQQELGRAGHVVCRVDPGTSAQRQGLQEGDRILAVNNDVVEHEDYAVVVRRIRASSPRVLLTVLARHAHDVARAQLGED
SCRIB_3, Q14160, sequence (Q14160 999-1103): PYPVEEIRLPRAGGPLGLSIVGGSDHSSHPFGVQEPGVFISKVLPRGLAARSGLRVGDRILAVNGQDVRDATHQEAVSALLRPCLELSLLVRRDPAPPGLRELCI
FRMPD3, Q5JV73, sequence (Q5JV73 12-100): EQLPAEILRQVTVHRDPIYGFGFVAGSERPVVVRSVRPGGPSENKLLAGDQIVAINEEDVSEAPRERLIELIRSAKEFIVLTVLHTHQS
SCRIB_1, Q14160, sequence (Q14160 718-814): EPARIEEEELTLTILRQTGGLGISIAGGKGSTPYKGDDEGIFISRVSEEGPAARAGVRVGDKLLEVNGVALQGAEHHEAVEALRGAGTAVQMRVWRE
NOS1, P29475, sequence (P29475 9-101): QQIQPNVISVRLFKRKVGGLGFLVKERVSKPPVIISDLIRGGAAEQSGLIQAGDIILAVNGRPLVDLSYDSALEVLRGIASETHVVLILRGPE
TJP2_1, Q9UDY2, sequence (Q9UDY2 24-128): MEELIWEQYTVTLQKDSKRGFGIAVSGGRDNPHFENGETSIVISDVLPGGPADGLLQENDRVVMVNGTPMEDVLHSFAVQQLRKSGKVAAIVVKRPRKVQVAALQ
Inadl_9, Q8NI35, sequence (Q8NI35 1530-1615): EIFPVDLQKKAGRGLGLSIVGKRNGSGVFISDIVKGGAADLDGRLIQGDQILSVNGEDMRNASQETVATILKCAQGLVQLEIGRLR
Inadl_4, Q8NI35, sequence (Q8NI35 547-651): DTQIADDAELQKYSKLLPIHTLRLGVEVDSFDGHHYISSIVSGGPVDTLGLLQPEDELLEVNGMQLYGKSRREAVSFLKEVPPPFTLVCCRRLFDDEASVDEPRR
PDZRN4_1, Q6ZMN7, sequence (Q6ZMN7 213-318): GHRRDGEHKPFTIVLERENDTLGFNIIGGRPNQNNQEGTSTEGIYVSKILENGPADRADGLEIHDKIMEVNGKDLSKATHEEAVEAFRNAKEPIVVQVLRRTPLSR
PDLIM1, O00151, sequence (O00151 1-87): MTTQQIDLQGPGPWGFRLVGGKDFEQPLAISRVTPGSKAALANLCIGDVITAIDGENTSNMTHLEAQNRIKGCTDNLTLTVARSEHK
GRIP2_3, Q9C0E4, sequence (Q9C0E4 238-339): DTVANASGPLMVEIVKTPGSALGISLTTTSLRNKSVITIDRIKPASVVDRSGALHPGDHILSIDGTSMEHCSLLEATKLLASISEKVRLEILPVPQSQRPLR
Inadl_5, Q8NI35, sequence (Q8NI35 673-780): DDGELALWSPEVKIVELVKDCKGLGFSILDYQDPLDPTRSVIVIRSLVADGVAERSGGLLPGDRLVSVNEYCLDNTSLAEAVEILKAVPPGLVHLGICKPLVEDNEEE
DLG1_2, Q12959, sequence (Q12959 314-412): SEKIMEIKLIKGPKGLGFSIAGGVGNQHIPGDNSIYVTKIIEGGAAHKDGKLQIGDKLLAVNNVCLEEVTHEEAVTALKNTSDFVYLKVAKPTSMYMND
PTPN3, P26045, sequence (P26045 505-587): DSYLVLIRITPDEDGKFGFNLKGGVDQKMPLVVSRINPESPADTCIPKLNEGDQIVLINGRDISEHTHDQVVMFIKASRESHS
DLG1_3, Q12959, sequence (Q12959 457-571): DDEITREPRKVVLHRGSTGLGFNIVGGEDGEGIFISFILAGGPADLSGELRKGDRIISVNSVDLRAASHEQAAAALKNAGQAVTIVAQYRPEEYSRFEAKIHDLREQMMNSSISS
AHNAK1, Q09666, sequence (Q09666 4-100): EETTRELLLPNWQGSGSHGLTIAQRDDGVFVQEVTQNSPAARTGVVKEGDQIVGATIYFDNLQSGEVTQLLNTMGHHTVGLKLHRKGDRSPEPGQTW
Inadl_8, Q8NI35, sequence (Q8NI35 1425-1530): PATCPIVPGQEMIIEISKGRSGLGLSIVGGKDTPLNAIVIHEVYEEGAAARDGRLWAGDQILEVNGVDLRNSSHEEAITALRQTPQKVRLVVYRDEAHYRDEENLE
Inadl_10, Q8NI35, sequence (Q8NI35 1673-1763): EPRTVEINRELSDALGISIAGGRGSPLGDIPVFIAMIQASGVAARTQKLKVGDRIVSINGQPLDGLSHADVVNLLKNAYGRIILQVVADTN

| Binder | pKd (FRMPD1, Q5SYB0) | pKd (NOS1, P29475) | pKd (PDLIM1, O00151) | pKd (Inadl_10, Q8NI35) | pKd (DVL3, Q92997) | pKd (DLG1_2, Q12959) | pKd (HTRA3, P83110) | pKd (DFNB31_2, Q9P202) | pKd (SCRIB_1, Q14160) | pKd (TJP1_3, Q07157) | pKd (APBA1_2, Q02410) | pKd (Inadl_9, Q8NI35) | pKd (NHERF4_1, Q86UT5-2) | pKd (Inadl_5, Q8NI35) | pKd (Inadl_4, Q8NI35) | pKd (TJP2_1, Q9UDY2) | pKd (APBA1_1, Q02410) | pKd (DLG1_3, Q12959) | pKd (FRMPD3, Q5JV73) | pKd (PDZRN4_1, Q6ZMN7) | also measured |
| --- | --- | --- | --- | --- | --- | --- | --- | --- | --- | --- | --- | --- | --- | --- | --- | --- | --- | --- | --- | --- | --- |
| QRPYRRGSEI [KCNJ18, B7U540] | below the threshold | 3.56 | below the threshold | below the threshold | below the threshold | 3.51 | 3.58 | below the threshold | below the threshold | below the threshold | 3.53 | below the threshold | below the threshold | below the threshold | below the threshold | below the threshold | below the threshold | below the threshold | below the threshold | below the threshold | pKd (LNX2_2, Q8N448): below the threshold; pKd (DLG3_3, Q92796): below the threshold; pKd (GRIP2_3, Q9C0E4): below the threshold; pKd (GOPC, Q9HD26): below the threshold; pKd (PTPN3, P26045): 4.02; pKd (SCRIB_3, Q14160): 4.05; pKd (Inadl_8, Q8NI35): 3.69; pKd (AHNAK1, Q09666): below the threshold; pKd (GRIP1_5, Q9Y3R0): below the threshold |
| ARSAAASNYV [CLDN4, O14493] | below the threshold | 3.82 | below the threshold | below the threshold | 3.66 | below the threshold | 4.15 | below the threshold | below the threshold | below the threshold | 3.83 | 3.71 | 3.7 | 3.68 | below the threshold | 3.92 | below the threshold | below the threshold | below the threshold | 3.66 | pKd (LNX2_2, Q8N448): 4.04; pKd (DLG3_3, Q92796): below the threshold; pKd (GRIP2_3, Q9C0E4): below the threshold; pKd (GOPC, Q9HD26): below the threshold; pKd (PTPN3, P26045): below the threshold; pKd (SCRIB_3, Q14160): below the threshold; pKd (Inadl_8, Q8NI35): 4.06; pKd (AHNAK1, Q09666): below the threshold; pKd (GRIP1_5, Q9Y3R0): below the threshold |
| NISYRRESAI [KCNJ4, P48050] | below the threshold | 3.62 | below the threshold | below the threshold | below the threshold | 4.48 | below the threshold | below the threshold | 3.89 | below the threshold | below the threshold | below the threshold | 3.48 | below the threshold | below the threshold | below the threshold | below the threshold | 3.91 | below the threshold | 4.25 | pKd (LNX2_2, Q8N448): below the threshold; pKd (DLG3_3, Q92796): 3.98; pKd (GRIP2_3, Q9C0E4): below the threshold; pKd (GOPC, Q9HD26): below the threshold; pKd (PTPN3, P26045): 4.6; pKd (SCRIB_3, Q14160): 4.91; pKd (Inadl_8, Q8NI35): below the threshold; pKd (AHNAK1, Q09666): below the threshold; pKd (GRIP1_5, Q9Y3R0): below the threshold |
| PTPDLPQTRV [KLHDC7A, Q5VTJ3] | below the threshold | below the threshold | below the threshold | below the threshold | below the threshold | 3.53 | below the threshold | 3.69 | below the threshold | below the threshold | 3.54 | 3.51 | below the threshold | below the threshold | below the threshold | below the threshold | below the threshold | below the threshold | below the threshold | 3.59 | pKd (LNX2_2, Q8N448): below the threshold; pKd (DLG3_3, Q92796): below the threshold; pKd (GRIP2_3, Q9C0E4): below the threshold; pKd (GOPC, Q9HD26): 4.89; pKd (PTPN3, P26045): below the threshold; pKd (SCRIB_3, Q14160): below the threshold; pKd (Inadl_8, Q8NI35): 4.36; pKd (AHNAK1, Q09666): below the threshold; pKd (GRIP1_5, Q9Y3R0): below the threshold |
| ARGPPRESEV [FAM110D, Q8TAY7] | below the threshold | 3.77 | 3.71 | below the threshold | below the threshold | 5.48 | below the threshold | 3.57 | 4.88 | below the threshold | 3.69 | 3.53 | below the threshold | below the threshold | below the threshold | below the threshold | below the threshold | 4.36 | below the threshold | 4.4 | pKd (LNX2_2, Q8N448): below the threshold; pKd (DLG3_3, Q92796): 4.48; pKd (GRIP2_3, Q9C0E4): below the threshold; pKd (GOPC, Q9HD26): 3.51; pKd (PTPN3, P26045): 4.94; pKd (SCRIB_3, Q14160): 4.63; pKd (Inadl_8, Q8NI35): 3.81; pKd (AHNAK1, Q09666): below the threshold; pKd (GRIP1_5, Q9Y3R0): below the threshold |
